{
  "source": "paper PMC11915744",
  "molecular_target": "NS1 used in the SPR assay (UniProt P03496)",
  "sequence (P03496 whole entry)": "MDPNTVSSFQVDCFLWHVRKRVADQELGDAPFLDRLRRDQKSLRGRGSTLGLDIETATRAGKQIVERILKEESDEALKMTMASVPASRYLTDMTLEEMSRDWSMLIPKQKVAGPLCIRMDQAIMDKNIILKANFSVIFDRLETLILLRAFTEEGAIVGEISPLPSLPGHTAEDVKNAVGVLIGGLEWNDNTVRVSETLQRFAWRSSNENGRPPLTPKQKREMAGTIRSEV",
  "experiment": "SPR",
  "note": "pKd: −log10 of the molar value.",
  "data": [
    {"substance": "hnRNPH1 used in the SPR assay (from UniProt P31943 1-449) (natural protein)", "values": [
      {"measurement": "pKd", "result": 4.98}
    ]}
  ]
}
